Reference: US20140242080A1 (Hoffmann-La Roche, published 2014)

Assays:
[1] = biological target: T1, human CD3 expressed on Jurkat cells (human, UniProt P07766 23-207); assay: flow cytometry on Jurkat cells
T1 construct: CD3 complex on Jurkat T cells; also called CD3 on Jurkat cells; huCD3
Procedure: (§1) Binding of the different bispecific constructs to CD3 on Jurkat cells (ATCC #TIB-152), and the respective tumor antigen on target cells, was determined by FACS. Briefly, cells were harvested, counted and checked for viability. 0.15-0.2 million cells per well (in PBS containing 0.1% BSA; 90 μl) were plated in a round-bottom 96-well plate and incubated with the indicated concentration of the bispecific constructs and corresponding IgG controls (10 μl) for 30 min at 4° C. […] After the incubation, cells were centrifuged (5 min, 350×g), washed with 150 μl PBS containing 0.1% BSA, resuspended and incubated for further 30 min at 4° C. with 12 μl/well of a FITC- or PE-conjugated secondary antibody. Bound constructs were detected using a FACSCantoII (Software FACS Diva). The “(scFv)₂” molecule was detected using a FITC-conjugated anti-His antibody (Lucerna, #RHIS-45F-Z). For all other molecules, a FITC- or PE-conjugated AffiniPure F(ab′)2 Fragment goat anti-human IgG Fcγ Fragment Specific (Jackson Immuno Research Lab #109-096-098/working solution 1:20, or #109-116-170/working solution 1:80, respectively) was used. Cells were washed by addition of 120 μl/well PBS containing 0.1% BSA and centrifugation at 350×g for 5 min. A second washing step was performed with 150 μl/well PBS containing 0.1% BSA. […] EC50 values were calculated using the GraphPad Prism software.
As a control, the equivalent maximum concentration of the corresponding IgGs and the background staining due to the labeled 2ndary antibody (goat anti-human FITC-conjugated AffiniPure F(ab′)2 Fragment, FcγFragment-specific, Jackson Immuno Research Lab #109-096-098) were assessed as well.

[2] = biological target: T2, human MCSP expressed on tumor cells (Colo-38, WM266-4, A375, MV-3, HCT-116) (human, UniProt Q6UVK1 30-2322); assay: flow cytometry on WM266-4 cells
T2 construct: whole, on cells; also called huMCSP; MCSP on cells
T2 sequence (Q6UVK1 30-2322): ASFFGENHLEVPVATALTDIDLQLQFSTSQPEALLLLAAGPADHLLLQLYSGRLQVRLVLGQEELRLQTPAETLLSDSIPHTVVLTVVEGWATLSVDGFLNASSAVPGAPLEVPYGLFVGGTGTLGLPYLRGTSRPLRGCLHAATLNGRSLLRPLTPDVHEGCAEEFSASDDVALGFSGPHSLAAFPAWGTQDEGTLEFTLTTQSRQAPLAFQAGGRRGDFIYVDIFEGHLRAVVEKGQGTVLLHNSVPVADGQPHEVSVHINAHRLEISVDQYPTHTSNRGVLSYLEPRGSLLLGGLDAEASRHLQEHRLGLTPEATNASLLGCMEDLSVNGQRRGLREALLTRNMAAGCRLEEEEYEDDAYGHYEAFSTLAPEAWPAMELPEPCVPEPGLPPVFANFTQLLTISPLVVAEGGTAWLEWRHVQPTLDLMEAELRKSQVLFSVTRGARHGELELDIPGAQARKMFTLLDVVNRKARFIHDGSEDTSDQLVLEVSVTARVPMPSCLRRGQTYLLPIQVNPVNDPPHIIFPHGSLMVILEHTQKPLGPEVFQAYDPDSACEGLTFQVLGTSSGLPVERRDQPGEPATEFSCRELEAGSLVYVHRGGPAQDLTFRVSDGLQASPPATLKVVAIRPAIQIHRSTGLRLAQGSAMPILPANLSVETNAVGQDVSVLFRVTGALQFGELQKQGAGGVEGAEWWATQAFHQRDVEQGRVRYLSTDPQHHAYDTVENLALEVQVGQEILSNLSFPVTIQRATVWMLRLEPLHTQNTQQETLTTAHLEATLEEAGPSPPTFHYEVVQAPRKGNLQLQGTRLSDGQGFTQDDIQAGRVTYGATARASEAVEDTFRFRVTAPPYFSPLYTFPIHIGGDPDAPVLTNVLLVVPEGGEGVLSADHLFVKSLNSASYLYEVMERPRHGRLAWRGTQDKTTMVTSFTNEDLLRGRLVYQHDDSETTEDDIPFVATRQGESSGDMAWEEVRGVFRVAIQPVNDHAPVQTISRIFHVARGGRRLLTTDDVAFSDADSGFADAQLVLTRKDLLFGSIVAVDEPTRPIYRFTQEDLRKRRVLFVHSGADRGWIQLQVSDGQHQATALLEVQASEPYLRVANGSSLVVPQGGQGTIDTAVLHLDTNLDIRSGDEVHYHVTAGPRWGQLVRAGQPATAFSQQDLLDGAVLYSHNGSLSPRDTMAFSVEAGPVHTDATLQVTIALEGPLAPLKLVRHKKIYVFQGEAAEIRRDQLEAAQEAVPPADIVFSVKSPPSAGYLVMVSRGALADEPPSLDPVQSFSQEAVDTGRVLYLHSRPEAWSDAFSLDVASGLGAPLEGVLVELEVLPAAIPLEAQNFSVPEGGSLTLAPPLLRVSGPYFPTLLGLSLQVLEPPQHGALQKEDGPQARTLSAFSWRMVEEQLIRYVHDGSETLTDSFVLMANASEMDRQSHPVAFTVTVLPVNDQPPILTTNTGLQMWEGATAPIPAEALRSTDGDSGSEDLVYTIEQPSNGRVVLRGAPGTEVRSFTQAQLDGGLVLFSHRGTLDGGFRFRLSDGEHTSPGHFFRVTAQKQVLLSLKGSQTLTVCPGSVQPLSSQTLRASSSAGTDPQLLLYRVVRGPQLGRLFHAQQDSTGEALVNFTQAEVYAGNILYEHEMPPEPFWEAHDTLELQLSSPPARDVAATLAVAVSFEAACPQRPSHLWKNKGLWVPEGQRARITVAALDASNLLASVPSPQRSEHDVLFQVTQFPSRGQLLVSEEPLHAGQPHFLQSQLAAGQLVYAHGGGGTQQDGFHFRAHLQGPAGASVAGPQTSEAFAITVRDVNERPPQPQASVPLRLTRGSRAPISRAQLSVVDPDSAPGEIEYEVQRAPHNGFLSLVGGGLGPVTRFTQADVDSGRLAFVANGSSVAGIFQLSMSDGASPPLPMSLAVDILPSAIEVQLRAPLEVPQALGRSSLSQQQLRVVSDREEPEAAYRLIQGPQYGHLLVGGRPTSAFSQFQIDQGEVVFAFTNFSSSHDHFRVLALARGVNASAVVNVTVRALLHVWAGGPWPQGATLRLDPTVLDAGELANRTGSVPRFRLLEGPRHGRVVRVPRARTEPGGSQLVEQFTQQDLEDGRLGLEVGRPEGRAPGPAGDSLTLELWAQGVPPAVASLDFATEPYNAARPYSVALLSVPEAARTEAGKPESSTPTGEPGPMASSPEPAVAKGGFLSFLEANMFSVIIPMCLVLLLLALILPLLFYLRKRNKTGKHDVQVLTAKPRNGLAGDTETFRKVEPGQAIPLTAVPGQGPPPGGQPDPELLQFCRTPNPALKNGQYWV
Procedure: as §1

[3] = biological target: T2, human MCSP expressed on tumor cells …; assay: cell-based or functional assay
cynomolgus MCSP D3 [4] = biological target: T3, cynomolgus MCSP D3 (cynomolgus, UniProt Q6UVK1 1582-2224 (human entry), limits assumed); assay: SPR Biacore T200, 25 C; affinity: IgG captured via anti-human Fc, MCSP D3 as analyte
T3 construct: also called Cyno MCSP; cynomolgus homologue
T3 chain: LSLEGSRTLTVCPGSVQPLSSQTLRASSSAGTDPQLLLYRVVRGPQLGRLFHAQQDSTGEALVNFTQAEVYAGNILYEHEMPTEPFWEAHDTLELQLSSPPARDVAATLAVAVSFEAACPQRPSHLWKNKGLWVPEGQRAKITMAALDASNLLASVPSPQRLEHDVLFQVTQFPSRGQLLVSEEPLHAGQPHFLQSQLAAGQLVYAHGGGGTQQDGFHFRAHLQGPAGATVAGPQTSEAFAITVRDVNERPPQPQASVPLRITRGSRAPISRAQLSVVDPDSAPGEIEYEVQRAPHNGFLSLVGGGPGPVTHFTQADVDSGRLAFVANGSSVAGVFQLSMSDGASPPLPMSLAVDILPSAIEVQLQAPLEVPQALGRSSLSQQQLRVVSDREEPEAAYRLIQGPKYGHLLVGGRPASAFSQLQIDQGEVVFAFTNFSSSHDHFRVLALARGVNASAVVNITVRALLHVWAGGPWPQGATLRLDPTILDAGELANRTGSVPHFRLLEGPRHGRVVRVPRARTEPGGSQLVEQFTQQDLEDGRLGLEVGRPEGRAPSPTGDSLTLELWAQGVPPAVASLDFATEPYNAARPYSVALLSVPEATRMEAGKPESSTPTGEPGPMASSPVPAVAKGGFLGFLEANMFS
Procedure: (§2) For analyzing the avidity of the interaction of different anti-MCSP IgGs to human and cynomolgus MCSP D3 direct coupling of around 9,500 resonance units (RU) of the anti-Penta His antibody (Qiagen) was performed on a CM5 chip at pH 5.0 using the standard amine coupling kit (Biacore, Freiburg/Germany). Antigens were captured for 60 s at 30 nM with 10 μl/min respectively. IgGs were passed at a concentration of 0.0064-100 nM with a flowrate of 30 μl/min through the flow cells over 280 s. The dissociation was monitored for 180 s. Bulk refractive index differences were corrected for by subtracting the response obtained on reference flow cell. […] For affinity measurements IgGs were captured on a CM5 sensorchip surface with immobilized anti human Fc. Capture IgG was coupled to the sensorchip surface by direct immobilization of around 9,500 resonance units (RU) at pH 5.0 using the standard amine coupling kit (Biacore, Freiburg/Germany). IgGs are captured for 25 s at 10 nM with 30 μl/min. Human and cynomolgus MCSP D3 were passed at a concentration of 2-500 nM with a flowrate of 30 μl/min through the flow cells over 120 s. The dissociation was monitored for 60 s. […] Bulk refractive index differences were corrected for by subtracting the response obtained on reference flow cell.

[5] = biological target: T4, hu-MCSP(D3 domain)-avi-his (human, UniProt Q6UVK1 1582-2224); assay: as above
T4 construct: Recombinant D3 domain with avi and his tags; also called human MCSP(D3 domain)-avi-his; Human MCSP D3
T4 sequence: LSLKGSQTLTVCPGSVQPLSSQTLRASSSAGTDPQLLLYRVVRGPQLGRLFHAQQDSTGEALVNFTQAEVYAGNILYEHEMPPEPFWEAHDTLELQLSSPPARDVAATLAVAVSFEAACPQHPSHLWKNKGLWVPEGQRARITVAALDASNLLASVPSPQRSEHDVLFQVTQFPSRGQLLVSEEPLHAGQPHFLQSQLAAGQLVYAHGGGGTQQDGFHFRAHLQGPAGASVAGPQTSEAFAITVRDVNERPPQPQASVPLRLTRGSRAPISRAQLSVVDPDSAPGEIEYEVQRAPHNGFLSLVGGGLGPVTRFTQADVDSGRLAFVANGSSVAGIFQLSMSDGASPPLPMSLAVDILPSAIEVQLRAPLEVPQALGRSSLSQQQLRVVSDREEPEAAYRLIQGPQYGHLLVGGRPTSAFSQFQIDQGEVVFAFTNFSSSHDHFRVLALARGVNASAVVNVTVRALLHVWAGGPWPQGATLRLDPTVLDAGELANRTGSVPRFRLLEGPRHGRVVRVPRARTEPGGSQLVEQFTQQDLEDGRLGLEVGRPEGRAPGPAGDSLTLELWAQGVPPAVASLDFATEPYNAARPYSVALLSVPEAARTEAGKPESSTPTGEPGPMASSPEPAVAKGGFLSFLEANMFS
Procedure: as §2

cynomolgus MCSP D3 [6] = biological target: T3, cynomolgus MCSP D3; assay: SPR ProteOn XPR36, 25 C; IgG captured via anti-human F(ab')2, MCSP D3 as analyte
[7] = biological target: T4, hu-MCSP(D3 domain)-avi-his; assay: as above
cynomolgus MCSP D3 [8] = biological target: T3, cynomolgus MCSP D3; assay: SPR Biacore T200, 25 C; avidity: MCSP D3 captured via anti-Penta His, IgG as analyte
Procedure: as §2

[9] = biological target: T4, hu-MCSP(D3 domain)-avi-his; assay: as above
Procedure: as §2

cynomolgus MCSP D3 [10] = biological target: T3, cynomolgus MCSP D3; assay: ratio of ProteOn IgG KD, parent M4-3/ML2 against variant
[11] = biological target: T4, hu-MCSP(D3 domain)-avi-his; assay: as above

T1 sequence (P07766 23-207 limits assumed): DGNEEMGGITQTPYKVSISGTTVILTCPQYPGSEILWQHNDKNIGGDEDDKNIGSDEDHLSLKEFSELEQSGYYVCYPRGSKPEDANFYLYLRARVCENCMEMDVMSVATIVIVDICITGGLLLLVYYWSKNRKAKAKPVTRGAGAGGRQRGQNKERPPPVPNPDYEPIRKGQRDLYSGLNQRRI

B1: 2 + 1 IgG Crossfab, inverted; CL/CH1 exchange (LC007/V9) (anti-MCSP/anti-huCD3) (bispecific antibody)
chain 1: DIVLTQSPSSLSASLGDRVTISCSASQGIRNYLNWYQQRPDGTVKLLIYYTSSLHSGVPSRFSGSGSGTDYSLTISNLEPEDIATYYCQQYSKLPWTFGGGTKLEIKRTVAAPSVFIFPPSDEQLKSGTASVVCLLNNFYPREAKVQWKVDNALQSGNSQESVTEQDSKDSTYSLSSTLTLSKADYEKHKVYACEVTHQGLSSPVTKSFNRGEC
chain 2: EVQLQESGPGLVKPSQSLSLTCSVTGYSITSGYYWNWIRQFPGNKLEWMGYITYDGSNNYNPSLKNRISITRDTSKNQFFLKLNSVTTEDTATYYCADFDYWGQGTTLTVSSASTKGPSVFPLAPSSKSTSGGTAALGCLVKDYFPEPVTVSWNSGALTSGVHTFPAVLQSSGLYSLSSVVTVPSSSLGTQTYICNVNHKPSNTKVDKKVEPKSCDKTHTCPPCPAPEAAGGPSVFLFPPKPKDTLMISRTPEVTCVVVDVSHEDPEVKFNWYVDGVEVHNAKTKPREEQYNSTYRVVSVLTVLHQDWLNGKEYKCKVSNKALGAPIEKTISKAKGQPREPQVCTLPPSRDELTKNQVSLSCAVKGFYPSDIAVEWESNGQPENNYKTTPPVLDSDGSFFLVSKLTVDKSRWQQGNVFSCSVMHEALHNHYTQKSLSLSPGK
chain 3: DIQMTQSPSSLSASVGDRVTITCRASQDIRNYLNWYQQKPGKAPKLLIYYTSRLESGVPSRFSGSGSGTDYTLTISSLQPEDFATYYCQQGNTLPWTFGQGTKVEIKSSASTKGPSVFPLAPSSKSTSGGTAALGCLVKDYFPEPVTVSWNSGALTSGVHTFPAVLQSSGLYSLSSVVTVPSSSLGTQTYICNVNHKPSNTKVDKKVEPKSC
chain 4: not shown
notes: also called 2+1 IgG Crossfab, inverted (V9)
EC50 [1]: 6.1 nM
EC50 [2]: 0.57 nM
EC50 [pM] of T cell-mediated killing (LDH release), MV-3 cells, human PBMCs E:T 10:1, about 24 h [3]: 4.1 pM
EC50 [pM] of T cell-mediated killing (LDH release), WM266-4 cells, human PBMCs E:T 10:1, about 24 h [3]: 3.7 pM

B2: 2 + 1 IgG Crossfab; CL/CH1 exchange (LC007/anti-CD3) (anti-MCSP/anti-huCD3) (bispecific antibody)
chain 1: B1 chain 1
chain 2: B1 chain 2
chain 3: QAVVTQESALTTSPGETVTLTCRSSTGAVTTSNYANWVQEKPDHLFTGLIGGTNKRAPGVPARFSGSLIGDKAALTITGAQTEDEAIYFCALWYSNLWVFGGGTKLTVLSSASTKGPSVFPLAPSSKSTSGGTAALGCLVKDYFPEPVTVSWNSGALTSGVHTFPAVLQSSGLYSLSSVVTVPSSSLGTQTYICNVNHKPSNTKVDKKVEPKSC
chain 4: not shown
notes: also called 2+1 IgG Crossfab (anti-CD3)
EC50 [1]: 10.3 nM
EC50 [2]: 3.1 nM
EC50 [pM] of T cell-mediated killing (LDH release), MV-3 cells, human PBMCs E:T 10:1, about 24 h [3]: 11 pM
EC50 [pM] of T cell-mediated killing (LDH release), WM266-4 cells, human PBMCs E:T 10:1, about 24 h [3]: 11.3 pM

B3: 2 + 1 IgG Crossfab, inverted; CL/CH1 exchange (LC007/anti-CD3) (anti-MCSP/anti-huCD3) (bispecific antibody)
chain 1: B1 chain 1
chain 2: B1 chain 2
chain 3: B2 chain 3
chain 4: not shown
notes: also called 2+1 IgG Crossfab, inverted (anti-CD3)
EC50 [1]: 32 nM
EC50 [2]: 3.4 nM
EC50 [pM] of T cell-mediated killing (LDH release), MV-3 cells, human PBMCs E:T 10:1, about 24 h [3]: 3 pM
EC50 [pM] of T cell-mediated killing (LDH release), WM266-4 cells, human PBMCs E:T 10:1, about 24 h [3]: 7.1 pM

B4: M4-3(C1)/ML2(G3) IgG (antibody, V domains shown)
VH: QVQLQESGPGLVKPSQTLSLTCTVSGGSITSGYYWNWIRQHPGKGLEWIGYITFDGSNNYNPSLKSRVTISRDTSKNQFSLKLSSVTAADTAVYYCADFDYWGQGTLVTVSS
VL: DIQMTQSPSSLSASVGDRVTITCRASQGIRNYLNWYQQKPGKAPKLLIYYTSSLHSGVPSRFSGSGSGTDYTLTISSLQPEDFATYYCQQYSALPWTFGQGTKVEIKR
notes: Human IgG1
Kd (cynomolgus MCSP D3 [4]): 1.4 nM
Kd [5]: 1.8 nM
Kd (cynomolgus MCSP D3 [6]): 0.2 nM
Kd [7]: 0.07 nM
Kd (cynomolgus MCSP D3 [8]): 0.0038 nM
Kd [9]: 0.0045 nM
Fold increase over parent (cynomolgus MCSP D3 [10]): 10 fold
Fold increase over parent [11]: 28.6 fold
